{
  "source": "patent US8529881B2",
  "about": "“Peptides for active anti-cytokine immunization” (Vaxconsulting, priority 2002, dated 2013)",
  "key": {"[1]": {"biological_target": "T1, human IL4 (native cytokine) (Homo sapiens, UniProt P05112)", "T1 sequence (P05112 25-153)": "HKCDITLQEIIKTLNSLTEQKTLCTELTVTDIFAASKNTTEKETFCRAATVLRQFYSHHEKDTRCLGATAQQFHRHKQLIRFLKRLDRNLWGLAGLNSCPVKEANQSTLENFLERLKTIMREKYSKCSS", "test": "ELISA of serum from immunized mice with native IL4", "assay_type": "in vivo", "conditions": "serum day 60"}, "[2]": {"test_system": "human vEGF (native cytokine)", "test": "ELISA of serum from immunized mice with native vEGF", "assay_type": "in vivo", "conditions": "serum day 60"}, "[3]": {"biological_target": "T2, human IP10 (native cytokine) (Homo sapiens, UniProt P02778)", "T2 sequence (P02778 22-98)": "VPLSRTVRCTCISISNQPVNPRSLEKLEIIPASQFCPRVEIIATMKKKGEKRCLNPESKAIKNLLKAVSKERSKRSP", "test": "ELISA of serum from immunized mice with native IP10", "assay_type": "in vivo", "conditions": "serum day 60"}, "IFNγ (native cytokine)": {"test_system": "IFNγ (native cytokine)", "assay_type": "cell-based, human"}, "[4]": {"biological_target": "human IFNγ (native cytokine) (Homo sapiens, UniProt P01579)", "sequence (P01579 24-161)": "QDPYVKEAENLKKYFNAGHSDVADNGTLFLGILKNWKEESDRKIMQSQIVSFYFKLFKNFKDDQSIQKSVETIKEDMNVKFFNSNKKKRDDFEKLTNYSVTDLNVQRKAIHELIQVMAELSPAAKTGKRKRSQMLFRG", "conditions": "in vivo"}, "[5]": {"biological_target": "T3, human IL18 (native cytokine) (Homo sapiens, UniProt Q14116)", "T3 sequence (Q14116 37-193)": "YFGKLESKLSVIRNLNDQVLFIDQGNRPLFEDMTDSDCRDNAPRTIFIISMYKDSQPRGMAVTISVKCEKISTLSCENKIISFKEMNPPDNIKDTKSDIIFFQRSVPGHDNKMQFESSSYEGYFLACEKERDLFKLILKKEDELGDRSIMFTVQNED", "test": "ELISA of serum from immunized mice with native IL18", "assay_type": "in vivo", "conditions": "serum day 60"}, "[6]": {"biological_target": "human IL12p40 (native cytokine) (Homo sapiens, UniProt P29460)", "sequence (P29460 23-328)": "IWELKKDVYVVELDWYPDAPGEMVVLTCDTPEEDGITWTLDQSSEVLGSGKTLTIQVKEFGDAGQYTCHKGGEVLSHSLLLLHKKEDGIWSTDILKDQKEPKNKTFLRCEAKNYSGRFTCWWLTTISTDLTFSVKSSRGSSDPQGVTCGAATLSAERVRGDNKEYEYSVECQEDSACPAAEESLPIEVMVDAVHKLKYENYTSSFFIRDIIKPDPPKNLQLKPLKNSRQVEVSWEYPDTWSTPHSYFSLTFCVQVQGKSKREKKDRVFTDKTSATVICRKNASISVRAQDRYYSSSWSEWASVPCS", "conditions": "in vivo"}, "[7]": {"biological_target": "T4, human TGFβ2 (native cytokine) (Homo sapiens, UniProt P61812)", "T4 sequence (P61812 303-414 limits assumed)": "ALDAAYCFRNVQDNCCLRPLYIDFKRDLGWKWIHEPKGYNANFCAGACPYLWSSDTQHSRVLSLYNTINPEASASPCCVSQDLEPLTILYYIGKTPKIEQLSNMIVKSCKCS", "test": "ELISA of serum from immunized mice with native TGFβ2", "assay_type": "in vivo", "conditions": "serum day 60"}, "[8]": {"biological_target": "human IL10 (native cytokine) (Homo sapiens, UniProt P22301)", "sequence (P22301 19-178)": "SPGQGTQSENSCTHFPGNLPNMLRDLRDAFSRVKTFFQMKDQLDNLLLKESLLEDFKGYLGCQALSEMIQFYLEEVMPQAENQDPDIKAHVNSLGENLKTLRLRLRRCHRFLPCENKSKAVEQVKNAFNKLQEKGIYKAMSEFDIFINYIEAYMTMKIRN", "test": "ELISA of serum from immunized mice with native IL10", "assay_type": "in vivo", "conditions": "serum day 60"}, "[9]": {"biological_target": "human TNFα (native cytokine) (Homo sapiens, UniProt P01375)", "sequence (P01375 77-233 limits assumed)": "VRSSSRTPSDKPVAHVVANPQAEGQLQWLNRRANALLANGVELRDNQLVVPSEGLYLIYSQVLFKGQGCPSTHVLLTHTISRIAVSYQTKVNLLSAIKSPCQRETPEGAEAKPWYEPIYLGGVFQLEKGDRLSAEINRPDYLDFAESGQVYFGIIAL", "test": "ELISA of serum from immunized mice with native TNFα", "assay_type": "in vivo", "conditions": "serum day 60"}, "native TNFα cytokine": {"biological_target": "native TNFα cytokine (Homo sapiens, UniProt P01375)", "sequence (P01375 77-233 limits assumed)": "as above", "test": "Neutralization of native TNFα by mouse serum, lysis of L929 cells", "assay_type": "cell-based", "conditions": "for percentage inhibition of the lysis (neutralization of the TNFα): 50 units TNFα, 24 hours", "description": "The existence of antibodies neutralizing the native cytokine was evaluated as follows: 50 units of native TNFα cytokine are preincubated with serum from mice (immunized or control) diluted 1/200th over 2 hours at 37° C. The whole is then added to L929 cells, with 25,000 cells per microwell. The lysis of the cells is evaluated after 24 hours by staining with naphthol blue black (Sigma)."}, "[10]": {"biological_target": "T5, human IL5 (native cytokine) (Homo sapiens, UniProt P05113)", "T5 sequence (P05113 20-134)": "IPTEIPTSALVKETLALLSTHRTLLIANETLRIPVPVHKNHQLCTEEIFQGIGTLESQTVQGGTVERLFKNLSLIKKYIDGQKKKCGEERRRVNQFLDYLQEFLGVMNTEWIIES", "test": "ELISA of serum from immunized mice with native IL5", "assay_type": "in vivo", "conditions": "serum day 60"}},
  "note": "Several values for one entry are separate records, joined by “and”; a condition that tells them apart may be missing. Equal entries are not always repeated. Positions of bridges follow the written chain, without caps; N, C: chain ends. No end group written: not given here.",
  "data": [
    {"sequence": "KQLIRFLKRLDRNLWGLAG (also: KLH conjugate via glutaraldehyde; listed as Homo sapiens) [Example 6, peptide corresponding to human IL4 coupled with KLH]", "values": [
      {"measurement": "average absorbance, ELISA native IL4", "setting": "[1]; Average of 5 mice", "value": 1.07},
      {"measurement": "average absorbance, ELISA native IL4", "setting": "[1]; Mouse 1", "value": 1.06},
      {"measurement": "average absorbance, ELISA native IL4", "setting": "[1]; Mouse 2", "value": 1.25},
      {"measurement": "average absorbance, ELISA native IL4", "setting": "[1]; Mouse 3", "value": 0.95},
      {"measurement": "average absorbance, ELISA native IL4", "setting": "[1]; Mouse 4", "value": 0.87},
      {"measurement": "average absorbance, ELISA native IL4", "setting": "[1]; Mouse 5", "value": 1.24}
    ]},
    {"sequence": "KPHQGQHIGEMS (also: KLH conjugate via glutaraldehyde; listed as Homo sapiens) [Example 2, synthetic peptide originating from human vEGF coupled to KLH]", "values": [
      {"measurement": "average absorbance, ELISA native vEGF", "setting": "[2]; Average of 5 mice", "value": 1.19},
      {"measurement": "average absorbance, ELISA native vEGF", "setting": "[2]; Mouse 1", "value": 1.50},
      {"measurement": "average absorbance, ELISA native vEGF", "setting": "[2]; Mouse 2", "value": 1.00},
      {"measurement": "average absorbance, ELISA native vEGF", "setting": "[2]; Mouse 3", "value": 0.86},
      {"measurement": "average absorbance, ELISA native vEGF", "setting": "[2]; Mouse 4", "value": 0.98},
      {"measurement": "average absorbance, ELISA native vEGF", "setting": "[2]; Mouse 5", "value": 1.63}
    ]},
    {"sequence": "KKKGEKRCLNPESKA [Example 9]", "values": [
      {"measurement": "average absorbance, ELISA native IP10", "setting": "[3]; Average of 5 mice", "value": 1.07},
      {"measurement": "average absorbance, ELISA native IP10", "setting": "[3]; Mouse 1", "value": 1.16},
      {"measurement": "average absorbance, ELISA native IP10", "setting": "[3]; Mouse 2", "value": 0.98},
      {"measurement": "average absorbance, ELISA native IP10", "setting": "[3]; Mouse 3", "value": 1.24},
      {"measurement": "average absorbance, ELISA native IP10", "setting": "[3]; Mouse 4", "value": 1.09},
      {"measurement": "average absorbance, ELISA native IP10", "setting": "[3]; Mouse 5", "value": 0.88}
    ]},
    {"sequence": "KKYFNAGHSDVADNGTLFLGILKN [Example 4]", "values": [
      {"measurement": "neutralization of the IFNγ, result in words", "setting": "IFNγ (native cytokine)", "value": "inhibitions are observed for the immunized mice"},
      {"measurement": "average absorbance, ELISA native IFNγ", "setting": "[4]", "value": "1.56 and 1.05 and 0.98 and 1.80 and 1.64 and 1.41"}
    ]},
    {"sequence": "KYFGKLESKLSVIRNLNDQVLFID (also: KLH conjugate via glutaraldehyde; listed as Homo sapiens) [Example 8, peptide originating from human IL18, K added, coupled with KLH]", "values": [
      {"measurement": "average absorbance, ELISA native IL18", "setting": "[5]; Average of 5 mice", "value": 1.35},
      {"measurement": "average absorbance, ELISA native IL18", "setting": "[5]; Mouse 1", "value": 1.85},
      {"measurement": "average absorbance, ELISA native IL18", "setting": "[5]; Mouse 2", "value": 1.13},
      {"measurement": "average absorbance, ELISA native IL18", "setting": "[5]; Mouse 3", "value": 0.99},
      {"measurement": "average absorbance, ELISA native IL18", "setting": "[5]; Mouse 4", "value": 1.24},
      {"measurement": "average absorbance, ELISA native IL18", "setting": "[5]; Mouse 5", "value": 1.54}
    ]},
    {"sequence": "KKEDGIWSTDILKDQKEPKNKTFLRCE [Example 7]", "values": [
      {"measurement": "average absorbance, ELISA native IL12p40", "setting": "[6]", "value": "0.95 and 1.06 and 1.58 and 1.14 and 0.87 and 1.12"}
    ]},
    {"sequence": "DTILYYIGKTPKIE (also: KLH conjugate via carbodiimide; listed as Homo sapiens) [Example 11, peptide corresponding to human TGFβ2, D added, coupled with KLH]", "values": [
      {"measurement": "average absorbance, ELISA native TGFβ2", "setting": "[7]; Average of 5 mice", "value": 1.07},
      {"measurement": "average absorbance, ELISA native TGFβ2", "setting": "[7]; Mouse 1", "value": 0.95},
      {"measurement": "average absorbance, ELISA native TGFβ2", "setting": "[7]; Mouse 2", "value": 1.15},
      {"measurement": "average absorbance, ELISA native TGFβ2", "setting": "[7]; Mouse 3", "value": 0.99},
      {"measurement": "average absorbance, ELISA native TGFβ2", "setting": "[7]; Mouse 4", "value": 1.17},
      {"measurement": "average absorbance, ELISA native TGFβ2", "setting": "[7]; Mouse 5", "value": 1.08}
    ]},
    {"sequence": "DECNMLRDLRDAFSRVKTFFQMKDQLDNC (disulfide 3-29 (inferred); also: KLH conjugate; listed as Homo sapiens) [Example 5, cyclic peptide originating from human IL10 coupled with KLH]", "values": [
      {"measurement": "average absorbance, ELISA native IL10", "setting": "[8]; Average of 5 mice", "value": 1.44},
      {"measurement": "average absorbance, ELISA native IL10", "setting": "[8]; Mouse 1", "value": 1.94},
      {"measurement": "average absorbance, ELISA native IL10", "setting": "[8]; Mouse 2", "value": 0.96},
      {"measurement": "average absorbance, ELISA native IL10", "setting": "[8]; Mouse 3", "value": 1.85},
      {"measurement": "average absorbance, ELISA native IL10", "setting": "[8]; Mouse 4", "value": 0.97},
      {"measurement": "average absorbance, ELISA native IL10", "setting": "[8]; Mouse 5", "value": 1.5}
    ]},
    {"sequence": "KYQAEGQLQWLNRRANALLANGVELRDNQL (also: KLH conjugate via diazobenzidine; listed as Homo sapiens) [Example 3, synthetic peptide originating from human TNFα, K and Y added, coupled to KLH]", "values": [
      {"measurement": "average absorbance, ELISA native TNFα", "setting": "[9]; Average of 5 mice", "value": 1.31},
      {"measurement": "average absorbance, ELISA native TNFα", "setting": "[9]; Mouse 1", "value": 1.64},
      {"measurement": "average absorbance, ELISA native TNFα", "setting": "[9]; Mouse 2", "value": 1.14},
      {"measurement": "average absorbance, ELISA native TNFα", "setting": "[9]; Mouse 3", "value": 1.96},
      {"measurement": "average absorbance, ELISA native TNFα", "setting": "[9]; Mouse 4", "value": 1.02},
      {"measurement": "average absorbance, ELISA native TNFα", "setting": "[9]; Mouse 5", "value": 0.78},
      {"measurement": "percentage inhibition of the lysis (neutralization of the TNFα)", "setting": "native TNFα cytokine; Average of 5 mice, serum diluted 1/200th", "value": 61, "unit": "%"},
      {"measurement": "percentage inhibition of the lysis (neutralization of the TNFα)", "setting": "native TNFα cytokine; Mouse 1, serum diluted 1/200th", "value": 88, "unit": "%"},
      {"measurement": "percentage inhibition of the lysis (neutralization of the TNFα)", "setting": "native TNFα cytokine; Mouse 2, serum diluted 1/200th", "value": 12, "unit": "%"},
      {"measurement": "percentage inhibition of the lysis (neutralization of the TNFα)", "setting": "native TNFα cytokine; Mouse 3, serum diluted 1/200th", "value": 93, "unit": "%"},
      {"measurement": "percentage inhibition of the lysis (neutralization of the TNFα)", "setting": "native TNFα cytokine; Mouse 4, serum diluted 1/200th", "value": 36, "unit": "%"},
      {"measurement": "percentage inhibition of the lysis (neutralization of the TNFα)", "setting": "native TNFα cytokine; Mouse 5, serum diluted 1/200th", "value": 79, "unit": "%"},
      {"measurement": "neutralization of the TNFα, result in words", "setting": "native TNFα cytokine; serum of immunized mice vs controls", "value": "responses are observed for the immunized mice"}
    ]},
    {"sequence": "KLQEFLGVMNTEWI (also: KLH conjugate via glutaraldehyde; listed as Homo sapiens) [Example 10, peptide corresponding to human IL5, K added, coupled with KLH]", "values": [
      {"measurement": "average absorbance, ELISA native IL5", "setting": "[10]; Average of 5 mice", "value": 1.26},
      {"measurement": "average absorbance, ELISA native IL5", "setting": "[10]; Mouse 1", "value": 1.25},
      {"measurement": "average absorbance, ELISA native IL5", "setting": "[10]; Mouse 2", "value": 1.21},
      {"measurement": "average absorbance, ELISA native IL5", "setting": "[10]; Mouse 3", "value": 1.87},
      {"measurement": "average absorbance, ELISA native IL5", "setting": "[10]; Mouse 4", "value": 1.10},
      {"measurement": "average absorbance, ELISA native IL5", "setting": "[10]; Mouse 5", "value": 0.88}
    ]}
  ]
}
